According to PMC7596816 (The Journal of Experimental Medicine, 2020):

T1: PfCSP_(71–104) (N-CSP construct) (Plasmodium falciparum, UniProt P19597)
T1 construct: Plasmodium falciparum circumsporozoite protein residues 71–104, cloned into a pETM-22 vector; pETM-22 adds, as far as I recall, an N-terminal thioredoxin and His6 with a 3C protease site; source: E. coli BL21(DE3), purified (HisTrap, SEC)
T1 chain: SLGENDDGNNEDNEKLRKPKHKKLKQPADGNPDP

T2: PfCSP_(81–98) peptide (Plasmodium falciparum, UniProt P19597)
T2 construct: Plasmodium falciparum circumsporozoite protein residues 81–98; Only residues 81–92 are resolved in the crystal structure; also called N-CSP peptide; source: synthetic peptide, bought: GenScript
T2 chain: EDNEKLRKPKHKKLKQPA

B1: 5D5 IgG (5D5 variable regions on human Igγ1 and Igκ, for non-yeast display experiments) (antibody, V domains shown)
VH: QVHLQQSGGEVARPGASVKLSCKASGYTFTGYGLSWVKQRTGQGLEWIGEIYPRSGNTYYNEKFKGKATLTADKSSSTAYMELRSLTSEDSAVYFCARSWGNSSFVYWGQGTLVTVSA
VL: SIVMTQTPKFLLVSAGDRVTITCKASQSVTNDVTWYQQKPGQSPKLLIYYASNRYTGVPDRFTGSGYGTDFTFTISTVQAEDLAVYFCQQDYSSPFTFGSGTKLEIK
notes: as the heavy chain of m1 (5D5 VH + human Igγ1-CH1); two residues that replace the two stop codons of the Fab heavy chain vector; human immunoglobulin gamma-1 constant region, the part after the Fab heavy chain through the CH2 and CH3 domains; as the light chain of m1 (5D5 VL + human Igκ); Chimeric human IgG1; detected with anti-human IgG1 or anti-human IgG secondary antibodies; also called mAb …
B2: 5D5 Fab expressed in HEK293F cells (complex glycan at H.Asn98) (Fab, V domains shown)
VH: B1 VH
VL: B1 VL
notes: murine mAb 5D5 VH cloned immediately upstream of human Igγ1-CH1; murine mAb 5D5 VL cloned immediately upstream of human Igκ; Chimeric Fab (mouse variable, human constant domains); The crystal structure used this glycoform; also called HEK293F–expressed 5D5 Fab; source: HEK293F, transient cotransfection, purified (KappaSelect, MonoS, SEC)

Experiments:
[1] = target: PfCSP on the surface of live Pf NF54 sporozoites (Plasmodium falciparum NF54 (endogenous in sporozoites)) (UniProt P19597); test: flow cytometry on cells; imaging flow cytometry (ImageStreamX Mk II) of live (propidium iodide-negative) Pf midgut sporozoites isolated from oocysts; mAb 1 µg/ml, 30 min 4°C, Cy5 anti-human IgG1
[2] = target: T1, PfCSP_(71–104) (N-CSP construct); test: ELISA; PfCSP71–104 coated at 50 ng/well; mAb at 4.00, 1.00, 0.25 and 0.06 µg/ml; goat anti-human IgG-HRP; area under the curve; conditions: both partners purified
[3] = target: PfCSP on the surface of live Pf NF54 sporozoites (Plasmodium falciparum NF54 (endogenous in sporozoites)) (UniProt P19597); test: flow cytometry on cells; imaging flow cytometry (ImageStreamX Mk II) of live (propidium iodide-negative) Pf salivary gland sporozoites; mAb 1 µg/ml, 30 min 4°C, Cy5 anti-human IgG1
[4] = target: T1, PfCSP_(71–104) (N-CSP construct); test: SEC; 5D5 Fab complexed with PfCSP71–104 at 1:1 molar ratio, with or without 100-fold molar excess of heparin sodium salt; Superdex 200 Increase 10/300 GL; peak fractions on non-reducing SDS-PAGE; conditions: both partners purified
[5] = target: T2, PfCSP_(81–98) peptide; test: crystal structure; 5D5 Fab and PfCSP81–98 peptide mixed 1:5; 20% (wt/vol) PEG 3350, 0.2 M di-ammonium citrate; 1.85 Å; conditions: both partners purified

Sequence of PfCSP on the surface of live Pf NF54 sporozoites (Plasmodium falciparum NF54 (endogenous in sporozoites)) (P19597 19-374): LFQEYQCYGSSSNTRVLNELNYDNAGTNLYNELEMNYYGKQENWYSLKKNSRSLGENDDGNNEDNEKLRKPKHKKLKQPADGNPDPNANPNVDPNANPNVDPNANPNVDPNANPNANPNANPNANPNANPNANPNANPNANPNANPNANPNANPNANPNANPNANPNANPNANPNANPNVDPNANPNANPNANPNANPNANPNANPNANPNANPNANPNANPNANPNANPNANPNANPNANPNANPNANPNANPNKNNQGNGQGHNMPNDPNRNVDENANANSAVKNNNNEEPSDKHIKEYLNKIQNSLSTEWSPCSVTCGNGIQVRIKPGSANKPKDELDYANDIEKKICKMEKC

| Binder | mAb-bound sporozoites (pos1) of tot1 262, Exp 1 [1] [sporozoites] | mAb-bound sporozoites (pos1) of tot1 728, Exp 2 [1] [sporozoites] | mAb-bound sporozoites (pos1) of tot1 1,456, Exp 3 [1] [sporozoites] | binding result [2] | fold decrease in MFI of mAb-bound sporozoites against mAb 1210 [3] [fold] | mAb-bound sporozoites (pos1) of tot1 487, Exp 2 [3] [sporozoites] | mAb-bound sporozoites (pos1) of tot1 545, Exp 1 [3] [sporozoites] | mAb-bound sporozoites (pos1) of tot1 1096, Exp 3 [3] [sporozoites] | proportion of mAb-bound sporozoites [3] [%] | binding result [4] | binding result [5] |
| --- | --- | --- | --- | --- | --- | --- | --- | --- | --- | --- | --- |
| B1 | 67 | 229 | 366 | binds | 2 | 82 | 176 | 316 | 27 |  |  |
| B2 |  |  |  |  |  |  |  |  |  | binds | binds |
